Assay results published in PMC3618588.

These substances were tested against His6-JAK2 JH1 (836-1132), phosphorylated (JAK2^pY1007/pY1008) (mouse) (UniProt Q62120).
Chain of UniProt Q62120 (Q62120 836-1132): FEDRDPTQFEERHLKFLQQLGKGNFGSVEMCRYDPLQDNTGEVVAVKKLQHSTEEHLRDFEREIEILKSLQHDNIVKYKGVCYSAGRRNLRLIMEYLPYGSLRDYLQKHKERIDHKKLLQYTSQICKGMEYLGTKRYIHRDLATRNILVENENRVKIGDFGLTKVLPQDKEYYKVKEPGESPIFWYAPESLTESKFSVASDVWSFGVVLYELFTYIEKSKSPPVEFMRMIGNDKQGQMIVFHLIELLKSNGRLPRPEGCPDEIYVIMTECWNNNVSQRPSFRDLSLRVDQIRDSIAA

Substance	IC50^mutant/IC50^WT, inhibition of JAK2 JH1 kinase activity
SOCS3 A50E / elonginBC complex (from UniProt O35718 22-225; Q15370 1-118; Q15369 1-112)	1.1 ratio to WT
SOCS3 A50K / elonginBC complex (from UniProt O35718 22-225; Q15370 1-118; Q15369 1-112)	6 ratio to WT
SOCS3 E30A / elonginBC complex (from UniProt O35718 22-225; Q15370 1-118; Q15369 1-112)	23 ratio to WT
SOCS3 L22A / elonginBC complex (from UniProt O35718 22-225; Q15370 1-118; Q15369 1-112)	1.2 ratio to WT
SOCS3 L22F / elonginBC complex (from UniProt O35718 22-225; Q15370 1-118; Q15369 1-112)	0.1 ratio to WT
SOCS3 R77A / elonginBC complex (from UniProt O35718 22-225; Q15370 1-118; Q15369 1-112)	1.4 ratio to WT
SOCS3 S26A / elonginBC complex (from UniProt O35718 22-225; Q15370 1-118; Q15369 1-112)	1 ratio to WT
SOCS3 S27A / elonginBC complex (from UniProt O35718 22-225; Q15370 1-118; Q15369 1-112)	2.5 ratio to WT
SOCS3 T24A / elonginBC complex (from UniProt O35718 22-225; Q15370 1-118; Q15369 1-112)	3.3 ratio to WT
SOCS3 T52A / elonginBC complex (from UniProt O35718 22-225; Q15370 1-118; Q15369 1-112)	10 ratio to WT

Further lines, results first:

IC50^mutant/IC50^WT, inhibition of JAK2 JH1 kinase activity	Substance
1.4 ratio to WT	SOCS3 K23A / elonginBC complex (from UniProt O35718 22-225; Q15370 1-118; Q15369 1-112)
2.8 ratio to WT	SOCS3 K28A / elonginBC complex (from UniProt O35718 22-225; Q15370 1-118; Q15369 1-112)
2 ratio to WT	SOCS3 S29A / elonginBC complex (from UniProt O35718 22-225; Q15370 1-118; Q15369 1-112)
6 ratio to WT	SOCS3 Y31A / elonginBC complex (from UniProt O35718 22-225; Q15370 1-118; Q15369 1-112)
80 ratio to WT	SOCS3 Y47F / elonginBC complex (from UniProt O35718 22-225; Q15370 1-118; Q15369 1-112)
1 ratio to WT	SOCS3^22-225 / elonginBC complex (wild type) (from UniProt O35718;Q15370;Q15369)

Biological target: His6-JAK2 JH1 (836-1132), phosphorylated (JAK2^pY1007/pY1008) (mouse) (UniProt Q62120)
Remark: another data set of the same source

IC50 of inhibition of JAK2 kinase activity by the isolated peptide [mM]	Substance
0.1	isolated KIR peptide from SOCS1
